B1: HMGR alone (enzyme, Saccharomyces cerevisiae, UniProt P12683 554-1054, looked up)
chain: VLTNKTVISGSKVKSLSSAQSSSSGPSSSSEEDDSRDIESLDKKIRPLEELEALLSSGNTKQLKNKEVAALVIHGKLPLYALEKKLGDTTRAVAVRRKALSILAEAPVLASDRLPYKNYDYDRVFGACCENVIGYMPLPVGVIGPLVIDGTSYHIPMATTEGCLVASAMRGCKAINAGGGATTVLTKDGMTRGPVVRFPTLKRSGACKIWLDSEEGQNAIKKAFNSTSRFARLQHIQTCLAGDLLFMRFRTTTGDAMGMNMISKGVEYSLKQMVEEYGWEDMEVVSVSGNYCTDKKPAAINWIEGRGKSVVAEATIPGDVVRKVLKSDVSALVELNIAKNLVGSAMAGSVGGFNAHAANLVTAVFLALGQDPAQNVESSNCITLMKEVDGDLRISVSMPSIEVGTIGGGTVLEPQGAMLDLLGVRGPHATAPGTNARQLARIVACAVLAGELSLCAALAAGHLVQSHMTHNRKPAEPTKPNNLDATDINRLKDGSVTCIKS
notes: Control prey of the GST pull-down; also called HMGR prey without an N-terminal SH3 domain

Assays:
[1] = target: T1, Crk SH3 (SH3 domain of mouse Crk, residues 134-191) (mouse, UniProt Q64010 134-191); test: method not described; footnote: affinities reported as measured in trans
T1 construct: range 134-191; also called mouse Crk SH3 domain

[2] = target: T2, N-terminal GST-tagged HMGS with 1 C-terminal SH3 peptide ligand (Saccharomyces cerevisiae, UniProt P54839 1-491); test: GST pull-down, GST-HMGS as bait, HMGR as prey
T2 construct: Bait of the GST pull-down; also called HMGS bait with 1 SH3 ligand; not shown: glutathione S-transferase (GST) tag at the N-terminus
T2 sequence: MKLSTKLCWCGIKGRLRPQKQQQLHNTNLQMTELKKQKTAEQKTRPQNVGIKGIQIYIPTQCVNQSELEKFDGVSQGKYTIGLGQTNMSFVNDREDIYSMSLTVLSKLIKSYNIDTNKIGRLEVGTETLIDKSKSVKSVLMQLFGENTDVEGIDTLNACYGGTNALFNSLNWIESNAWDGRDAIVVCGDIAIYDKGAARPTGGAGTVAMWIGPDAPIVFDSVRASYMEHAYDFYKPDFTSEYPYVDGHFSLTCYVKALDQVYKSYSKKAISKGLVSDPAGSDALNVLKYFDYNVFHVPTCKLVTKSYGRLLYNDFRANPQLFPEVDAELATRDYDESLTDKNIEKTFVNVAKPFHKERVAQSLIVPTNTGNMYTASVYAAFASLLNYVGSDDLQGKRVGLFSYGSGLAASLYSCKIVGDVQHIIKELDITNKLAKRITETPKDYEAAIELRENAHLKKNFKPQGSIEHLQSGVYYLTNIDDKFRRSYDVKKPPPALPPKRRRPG
From the text: (§1) As a direct test of engineered enzyme co-recruitment, the bottleneck enzymatic step of the mevalonate biosynthetic pathway (HMGR-catalyzed turnover of HMG-CoA to mevalonate) was targeted for flux improvement. A synthetic complex of HMGS and HMGR was created by recombining a varying number of SH3 (Src Homology 3 domain from the adapter protein CRK) interaction ligands to the C-terminus of HMGS and recombining an SH3 domain to the N-terminus of HMGR (FIG. 2a). This simple design also allowed for control over the relative ratio of these two enzymes at the resultant complex. The ability of these proteins to interact in an SH3-dependent manner was probed in a GST pull-down experiment (FIG. 2b). […] As prey, an SH3 domain was recombined to the N-terminus of HMGR and compared to HMGR alone. No significant interaction was observed between HMGS and HMGR without engineered SH3 interactions. However, HMGR with an N-terminal SH3 domain was pulled down by GST-tagged HMGS in a ligand-dependent manner. […] Thus, the relative stoichiometries of these two enzymes were controlled at the complex by varying the number of interaction ligands tethered to HMGS.

[3] = target: T3, WASP GBD (GTPase Binding Domain of rat N-WASP, residues 196-274) (rat, UniProt O08816 196-274); test: method not described; footnote: affinities reported as measured in trans
T3 construct: range 196-274; also called rat N-WASP GBD

[4] = target: T4, HMGR with an N-terminal SH3 domain (mouse; Saccharomyces cerevisiae, UniProt Q64010 134-191; P12683 554-1054); test: GST pull-down, GST-HMGS as bait, HMGR as prey
T4 construct: also called SH3 domain recombined to the N-terminus of HMGR; HMGR prey with an N-terminal SH3 domain
From the text: as §1

HMGR alone = target: B1; test: GST pull-down, GST-HMGS as bait, HMGR as prey
From the text: as §1

[5] = target: T5, Syn PDZ (PDZ domain of mouse α-syntrophin, residues 77-171) (mouse, UniProt Q61234 77-171); test: method not described; footnote: affinities reported as measured in trans
T5 construct: range 77-171; also called Mouse α-syntrophin (syn) PDZ domain
T5 sequence (looked up): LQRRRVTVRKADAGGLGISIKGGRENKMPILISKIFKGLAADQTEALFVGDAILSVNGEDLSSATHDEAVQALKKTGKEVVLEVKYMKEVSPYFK

T1 sequence (Q64010 134-191 limits assumed): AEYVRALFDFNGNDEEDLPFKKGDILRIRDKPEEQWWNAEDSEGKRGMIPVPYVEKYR
T3 sequence (O08816 196-274 limits assumed): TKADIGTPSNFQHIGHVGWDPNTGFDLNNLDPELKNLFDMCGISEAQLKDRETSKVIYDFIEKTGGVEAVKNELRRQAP

PPPALPPKRRRPG (also called SH3 peptide ligand) [SH3 lig.]
Kd [1]: 100 nM

B1
binding result [2]: no binding

LVGALMHVMQKRSRAIHSSDEGEDQAGDEDED (also called GBD ligand) [GBD lig.]
Kd [3]: 1000 nM

B2: N-terminal GST-tagged HMGS with 0 C-terminal SH3 peptide ligands (enzyme, UniProt P54839 1-491, looked up)
chain: MKLSTKLCWCGIKGRLRPQKQQQLHNTNLQMTELKKQKTAEQKTRPQNVGIKGIQIYIPTQCVNQSELEKFDGVSQGKYTIGLGQTNMSFVNDREDIYSMSLTVLSKLIKSYNIDTNKIGRLEVGTETLIDKSKSVKSVLMQLFGENTDVEGIDTLNACYGGTNALFNSLNWIESNAWDGRDAIVVCGDIAIYDKGAARPTGGAGTVAMWIGPDAPIVFDSVRASYMEHAYDFYKPDFTSEYPYVDGHFSLTCYVKALDQVYKSYSKKAISKGLVSDPAGSDALNVLKYFDYNVFHVPTCKLVTKSYGRLLYNDFRANPQLFPEVDAELATRDYDESLTDKNIEKTFVNVAKPFHKERVAQSLIVPTNTGNMYTASVYAAFASLLNYVGSDDLQGKRVGLFSYGSGLAASLYSCKIVGDVQHIIKELDITNKLAKRITETPKDYEAAIELRENAHLKKNFKPQGSIEHLQSGVYYLTNIDDKFRRSYDVKK
notes: Bait of the GST pull-down; also called HMGS bait with 0 SH3 ligands; not shown: glutathione S-transferase (GST) tag at the N-terminus
binding result [4]: no binding | binding result (HMGR alone): no binding

GVKESLV (also called PDZ ligand; GVKESLV) [PDZ lig.]
Kd [5]: 8000 nM
